{"source": "patent US20240392271A1", "about": "“ENGINEERED CASX REPRESSOR SYSTEMS” (Scribe Therapeutics Inc., priority 2021, published 2024)", "molecules": {"B1": {"name": "dCasX527: catalytically-dead CasX 527, SEQ ID NO: 24 (protein)", "chain": "QEIKRINKIRRRLVKDSNTKKAGKTRGPMKTLLVRVMTPDLRERLENLRKKPENIPQPISNTSRANLNKLLTDYTEMKKAILHVYWEEFQKDPVGLMSRVAQPASKKIDQNKLKPEMDEKGNLTTAGFACSQCGQPLFVYKLEQVSEKGKAYTNYFGRCNVAEHEKLILLAQLKPEKDSDEAVTYSLGKFGQRALDFYSIHVTKESTHPVKPLAQIAGNRYASGPVGKALSDACMGTIASFLSKYQDIIIEHQKVVKGNQKRLESLRELAGKENLEYPSVTLPPQPHTKEGVDAYNEVIARVRMWVNLNLWQKLKLSRDDAKPLLRLKGFPSFPLVERQANEVDWWDMVCNVKKLINEKKEDGKVFWQNLAGYKRQEALRPYLSSEEDRKKGKKFARYQLGDLLLHLEKKHGEDWGKVYDEAWERIDKKVEGLSKHIKLEEERRSEDAQSKAALTDWLRAKASFVIEGLKEADKDEFCRCELKLQKWYGDLRGKPFAIEAENSILDISGFSKQYNCAFIWQKDGVKKLNLYLIINYFKGGKLRFKKIKPEAFEANRFYTVINKKSGEIVPMEVNFNFDDPNLIILPLAFGKRQGREFIWNDLLSLETGSLKLANGRVIEKTLYNRRTRQDEPALFVALTFERREVLDSSNIKPMNLIGVARGENIPAVIALTDPEGCPLSRFKDSLGNPTHILRIGESYKEKQRTIQAKKEVEQRRAGGYSRKYASKAKNLADDMVRNTARDLLYYAVTQDAMLIFANLSRGFGRQGKRTFMAERQYTRMEDWLTAKLAYEGLSKTYLSKTLAQYTSKTCSNCGFTITSADYDRVLEKLKKTATGWMTTINGKELKVEGQITYYNRYKRQNVVKDLSVELDRLSEESVNNDISSWTKGRSGEALSLLKKRFSHRPVQEKFVCLNCGFETHAAEQAALNIARSWLFLRSQEYKKYQTNKTTGNTDKRAFVETWQSFYRKKLKEVWKPAV"}, "B2": {"name": "DOMAIN_26749: KRAB domain derived from the king cobra, Ophiophagus hannah, SEQ ID NO: 57755; top 10 (protein)", "chain": "STPVTFEDVVVYFTAAEWVHLTNWQRDFYQAVMMETYELVASVAGDGVPMAEDEEGGVERPVWQYIPRGKRRRKTPQPRAD", "modifications": "Ophiophagus hannah"}, "B3": {"name": "dCasX491: catalytically-dead CasX 491, SEQ ID NO: 18 (protein)", "chain": "QEIKRINKIRRRLVKDSNTKKAGKTGPMKTLLVRVMTPDLRERLENLRKKPENIPQPISNTSRANLNKLLTDYTEMKKAILHVYWEEFQKDPVGLMSRVAQPASKKIDQNKLKPEMDEKGNLTTAGFACSQCGQPLFVYKLEQVSEKGKAYTNYFGRCNVAEHEKLILLAQLKPEKDSDEAVTYSLGKFGQRALDFYSIHVTKESTHPVKPLAQIAGNRYASGPVGKALSDACMGTIASFLSKYQDIIIEHQKVVKGNQKRLESLRELAGKENLEYPSVTLPPQPHTKEGVDAYNEVIARVRMWVNLNLWQKLKLSRDDAKPLLRLKGFPSFPLVERQANEVDWWDMVCNVKKLINEKKEDGKVFWQNLAGYKRQEALRPYLSSEEDRKKGKKFARYQLGDLLLHLEKKHGEDWGKVYDEAWERIDKKVEGLSKHIKLEEERRSEDAQSKAALTDWLRAKASFVIEGLKEADKDEFCRCELKLQKWYGDLRGKPFAIEAENSILDISGFSKQYNCAFIWQKDGVKKLNLYLIINYFKGGKLRFKKIKPEAFEANRFYTVINKKSGEIVPMEVNFNFDDPNLIILPLAFGKRQGREFIWNDLLSLETGSLKLANGRVIEKTLYNRRTRQDEPALFVALTFERREVLDSSNIKPMNLIGVARGENIPAVIALTDPEGCPLSRFKDSLGNPTHILRIGESYKEKQRTIQAKKEVEQRRAGGYSRKYASKAKNLADDMVRNTARDLLYYAVTQDAMLIFANLSRGFGRQGKRTFMAERQYTRMEDWLTAKLAYEGLSKTYLSKTLAQYTSKTCSNCGFTITSADYDRVLEKLKKTATGWMTTINGKELKVEGQITYYNRYKRQNVVKDLSVELDRLSEESVNNDISSWTKGRSGEALSLLKKRFSHRPVQEKFVCLNCGFETHAAEQAALNIARSWLFLRSQEYKKYQTNKTTGNTDKRAFVETWQSFYRKKLKEVWKPAV"}, "B4": {"name": "dCasX668: catalytically-dead CasX 668, SEQ ID NO: 59355 (protein)", "chain": "QEIKRINKIRRRLVKDSNTKKAGKTRGPMKTLLVRVMTPDLRERLENLRKKPENIPQPISNTSRANLNKLLTDYTEMKKAILHVYWEEFQKDPVGLMSRVAQPASKKIDQNKLKPEMDEKGNLTTAGFACSQCGQPLFVYKLEQVSEKGKAYTNYFGRCNVAEHEKLILLAQLKPEKDSDEAVTYSLGKFGQRALDFYSIHVTKESTHPVKPLAQIAGNRYASSPVGKALSDACMGTIASFLSKYQDIIIEHQKVVKGNQKRLESLRELAGKENLEYPSVTLPPQPHTKEGVDAYNEVIARVRMWVNLNLWQKLKLSRDDAKPLLRLKGFPSFPLVERQANEVDWWDMVCNVKKLINEKKEDGKVFWQNLAGYKRQEALRPYLSSEEDRKKGKKFARYQLGDLLLHLEKKHGEDWGKVYDEAWERIDKKVEGLSKHIKLEEERRSEDAQSKAALTDWLRAKASFVIEGLKEADKDEFCRCELKLQKWYGDLRGKPFAIEAENSILDISGFSKQYNCAFIWQKDGVKKLNLYLIINYFKGGKLRFKKIKPEAFEANRFYTVINKKSGEIVPMEVNFNFDDPNLIILPLAFGKRQGREFIWNDLLSLETGSLKLANGRVIEKTLYNRRTRQDEPALFVALTFERREVLDSSNIKPMNLIGVARGENIPAVIALTDPEGCPLSRFKDSLGNPTHILRIGESYKEKQRTIQAKKEVEQRRAGGYSRKYASKAKNLADDMVRNTARDLLYYAVTQDAMLIFANLSRGFGRQGKRTFMAERQYTRMEDWLTAKLAYEGLPSKTYLSKTLAQYTSKTCSNCGFTITSADYDRVLEKLKKTATGWMTTINGKELKVEGQITYYNRYKRQNVVKDLSVELDRLSEESVNNDISSWTKGRSGEALSLLKKRFSHRPVQEKFVCLNCGFETHAAEQAALNIARSWLFLRSQEYKKYQTNKTTGNTDKRAFVETWQSFYRKKLKEVWKPAV"}, "B5": {"name": "dCasX676: catalytically-dead CasX 676, SEQ ID NO: 59357 (protein)", "chain": "B4 chain with L169K"}, "B6": {"name": "316 scaffold: chimeric RNA scaffold: scaffold 235 with extended stem loop of scaffold 174, SEQ ID NO: 59352, 89 nucleotides (nucleic acid)", "guide": "ACUGGCGCUUCUAUCUGAUUACUCUGAGCGCCAUCACCAGCGACUAUGUCGUAGUGGGUAAAGCUCCCUCUUCGGAGGGAGCAUCAGAG", "modifications": "listed as RNA, further chemistry not given here"}}, "key": {"human B2M locus": {"system": "human B2M locus", "assay": "Editing (indel rate by NGS) at the B2M locus by catalytically-dead CasX variants (Example 8)", "format": "cell-based", "conditions": "HEK293T, B2M-targeting spacer 7.37, six days after transfection"}, "HBEGF locus": {"system": "HBEGF locus", "format": "cell-based, human", "conditions": "dCasX491-KRAB lentiviral library, spacer 34.28, HEK293T, 2 ng/ml diphtheria toxin 48 hours"}, "[1]": {"system": "endogenous B2M (beta-2-microglobulin) gene", "assay": "B2M protein expression by HLA antibody flow cytometry, dXR constructs (Example 1, Table 14)", "format": "cell-based, human", "conditions": "for % cells expressing B2M protein: HEK293T cells, % of cells counted that were positive, biological triplicates", "excerpt": "dXR variant plasmids encoding constructs having the configuration of U6-gRNA+Ef1α-NLS-GGS-dCasX491-GGS-KRAB variant-NLS (dCasX491 refers to catalytically-dead CasX 491), were transiently transfected into HEK293T cells in an arrayed 96-well format. These constructs also contained a 2× FLAG sequence, as well as sequences encoding either a gRNA scaffold 174 (SEQ ID NO: 2238) having a spacer (spacer 7.37) targeting the endogenous B2M (beta-2-microglobulin) gene or a non-targeting control (spacer 0.0), which were all cloned upstream of a P2A-puromycin element on the plasmid. Four different effector domains were tested in addition to the “naked” dCasX491 (KRAB variant domains listed in Table 9; spacer sequences listed in Table 10; sequences of additional elements listed in Table 11). The corresponding protein sequences of the dXR molecule are listed in Table 13, and the generic configuration of the dXR molecule is illustrated in FIG. 38. Positive and negative controls based on a catalytically-dead Cas9 nuclease (with or without a ZNF10 repressor) with a B2M-targeting gRNA (spacer 7.14) or a non-targeting gRNA control (spacer 0.0) were included, along with a catalytically-active CasX 491 and gRNA with the same 7.37 and 0.0 spacers. Two days after transfection, total RNA was harvested, and reverse transcribed to generate a cDNA library. Changes in gene expression were calculated by performing qPCR on the targeted gene and a housekeeping gene as reference. Relative gene expression represents the amount of target-specific RNA relative to a reference gene normalized to the non-targeting guide condition for two biological replicates. In addition to the wells used for RNA measurements, a separate set of wells was harvested seven days post-transfection and analyzed for B2M protein expression. Expression of B2M protein was determined by using an antibody that detects the B2M-dependent HLA protein complex on the cell surface. […]"}, "[2]": {"assay": "Editing assays comparing gRNA scaffolds", "conditions": "compared with gRNA scaffold 174"}}, "note": "Substitutions are numbered along the chain they refer to.", "data": [{"molecule": "B1", "values": [{"measurement": "percent editing at the B2M locus measured as indel rate by NGS", "setting": "human B2M locus", "value": "did not exhibit editing"}]}, {"molecule": "B2", "values": [{"measurement": "log2 (fold change) in abundance of the KRAB domain before and after selection", "setting": "HBEGF locus", "value": "highest log (fold change)"}]}, {"molecule": "B3", "values": [{"measurement": "percent editing at the B2M locus measured as indel rate by NGS", "setting": "human B2M locus", "value": "did not exhibit editing"}, {"measurement": "% cells expressing B2M protein", "setting": "[1]; B2M-targeting spacer 7.37", "value": 85.70, "unit": "%"}, {"measurement": "cells negative for the B2M protein", "setting": "[1]; HEK293T, seven days post-transfection, B2M-targeting gRNA, HLA flow cytometry", "value": "~10", "unit": "%"}, {"measurement": "% cells expressing B2M protein", "setting": "[1]; non-targeting spacer 0.0", "value": 95.90, "unit": "%"}]}, {"molecule": "B4", "values": [{"measurement": "percent editing at the B2M locus measured as indel rate by NGS", "setting": "human B2M locus", "value": "did not exhibit editing"}]}, {"molecule": "B5", "values": [{"measurement": "percent editing at the B2M locus measured as indel rate by NGS", "setting": "human B2M locus", "value": "did not exhibit editing"}]}, {"molecule": "B6", "values": [{"measurement": "performance in editing assays", "setting": "[2]", "value": "comparably or more favorably than gRNA scaffold 174"}]}]}
